We go through five molecules from patent publication US11713337B2, “Peptide, compositions and method for delivery of agents into cells and tissues” (priority 2019, dated 2023).

In series [1] the test system is retina. Briefly: Retinal penetration of FAM-labeled Nuc1 after intravitreal injection. The method, then: Intravitreal and subretinal injections: Mice were anesthetized by injecting intraperitoneally a cocktail mixture containing Ketamine (100 mg/kg, Phoenix™, St Joseph, Mo.) and Xylazine (10 mg/kg, Lloyed, Shenandoah, Iowa) followed by topical application of 0.5% proparacaine hydrochloride (Akorn Inc., Lake Forest, Ill., USA) for topical analgesia to the cornea. Mice were kept warm during anesthesia. lntravitreal and subretinal injections were performed using a 32-gauge needle and a 5μI glass syringe, as previously described (Cashman et al., 2015). […] Four hours post injection (as indicated), eyes were enucleated and fixed in 4% paraformaldehyde. […] Retinal cryosections were taken using a Micron 550 cryostat.
Four hours post injection, eyes of these mice were enucleated and fixed in 4% paraformaldehyde. Retinal cryosections were generated using a Micron 550 cryostat and sections were imaged using a fluorescent microscope.

For series [2], the system named is retina. The conditions noted are these: 1 μg dexamethasone alone or with 1 μg Nuc1.
Experimental: We hypothesized that Nuc1 may facilitate penetration of steroids into tissues, enabling a steroid to be applied in a reduced dosage without loss of efficacy. To test this hypothesis, we injected either 1 μg fluorescently labeled dexamethasone alone or fluorescently labeled dexamethasone in combination with 1 μg Nuc1.
The test system of series [3] is alkali burn of the cornea. Briefly: Alkali burn of the cornea: corneal opacity and H+E histology. Type of series: in vivo, C57BL/6 mice. An excerpt: (§1) Mice were kept warm during anesthesia. Alkali burn was induced in the cornea by applying 2 mm filter paper discs soaked with 1N sodium hydroxide (NaOH) on the central cornea of the right eye for 30 seconds. The filter paper was gently removed from the cornea and the cornea rinsed with phosphate buffered saline (PBS) 10 times to clear residual NaOH. The left eye was left unexposed to NaOH and served as a control. […] The treatments were applied topically once a day for seven days. Images of the eye were captured on day 7 using a digital camera. After 7 days, mice were sacrificed by CO2 inhalation, followed by cervical dislocation. The eyes were enucleated and fixed in 4% paraformaldehyde. Corneal cryosections were taken using a Micron 550 cryostat.
Histopathology: The eyes were harvested for histology 7 days post-treatment and fixed in Hartman's fixative. After 48 hours, the specimens were dehydrated through alcohol steps and embedded in paraffin. […] sections were cut at different planes, including the optic nerve region, and stained with Hematoxylin & Eosin (H&E). Imaging of stained sections was performed using an Olympus BX51 microscope using a Retiga 2000r camera.
On day 7, mice were sacrificed for imaging of corneas (FIG. 14A). […] Mice were scored for clinical opacity based on method described by Anderson et al.. […]

Series [4] has as its system alkali burn of the cornea. The series can be described thus: Alkali burn of the cornea: staining of corneal cryosections (isolectin, SMA, CD45, F4/80, TGF-β1, activated Caspase-3). Type of series: in vivo, C57BL/6 mice.
Excerpt: The filter paper was gently removed and the cornea was rinsed with phosphate buffered saline (PBS) 10 times. […] The treatments were applied topically once a day for seven days. After 7 days, mice were sacrificed by CO2 inhalation. Eyes were enucleated and fixed in 4% paraformaldehyde. Corneal cryosections were taken using a Micron 550 cryostat and stained for α-actin, a marker of fibrosis.
as §1
Immunochemistry: Cryosections were air dried for 10 minutes and washed in PBS for 5 minutes. They were subsequently incubated in 6% normal goat serum and PBS-Triton for 1 hour at room temperature for permeabilization and blocking. The slides were incubated with FITC-conjugated isolectin or with primary antibody against one of following: α-smooth muscle actin (SMA), glial fibrillary acidic protein (GFAP), CD45, transforming growth factor beta (TGF-β1), F4/80, transforming growth factor beta (TGF-β1) (Abcam; ab92486), or activated Caspase-3. This incubation was performed at 4° C. in a moist chamber overnight. For samples treated with antibodies, detection was performed by incubation with a secondary Cy3-conjugated goat anti-rabbit/anti-mouse antibody (Jackson lmmunoResearch, West Grove, Pa.) for 1 hour at room temperature. The slides were washed three times with PBS and mounted in Vectashield anti fade mounting medium containing DAPI to counterstain the nuclei. Imaging of stained sections was performed using an Olympus IX51 microscope and appropriate filters. Images were captured using a Retiga 2000r camera. The intensity of the antibody specific staining was quantified using ImageJ software.

Series [5] deals with alkali burn of the cornea. Briefly: Alkali burn of the cornea: multiplex ELISA of cytokines in corneal lysates. Type of series: in vivo, C57BL/6 mice. The note with it: 7 days topical treatment, Bioplex.
Excerpt: as §1
Multiplex ELISA: Multiplex ELISA was performed to detect IL-6, IL-17, IL-10, IFN-G, TNF-α, and IL-1β using Bio-plex pro mouse cytokineTh17 A 6 plex group I (Bio-Rad, M6000007NY), as per the manufacturer's instructions. Briefly, alkali burn was induced as described above. Mice were sacrificed on day 7 and corneas were extracted. The corneas were dissected into small pieces and stored at −80° C. in Bioplex cell lysis buffer. Two corneas were pooled together for each sample and 50 μl of the lysate was used in duplicate for each sample. The samples were run using the Bio plex manager MP software and the data was analyzed using Bioplex manager 6.0.

Series [6] deals with alkali burn of the cornea. The series can be described thus: Alkali burn of the cornea: TUNEL assay on corneal cryosections. The conditions noted are these: 7 days topical treatment. Format: in vivo, C57BL/6 mice.
Excerpt: as §1
TUNEL assay: To detect cell death, the terminal deoxynucleotidyl transferase-mediated dUTP-biotin nick-end labeling (TUNEL) method was performed on corneal cryosections using the In Situ Death Detection Kit, TMR Red (Sigma), as per the manufacturer's instructions. The sections were imaged, as described above, and images used for quantification of TUNEL positive cells using ImageJ (FIJI version and plug in), as previously described.

Series [7] deals with gliosis in the retina after alkali burn. Briefly: Alkali burn of the cornea: GFAP staining of retina (gliosis). Type of series: in vivo, C57BL/6 mice. The conditions noted are these: topical to cornea for 7 days after alkali burn.
Excerpt: as §1
Immunochemistry: Cryosections were air dried for 10 minutes and washed in PBS for 5 minutes. They were subsequently incubated in 6% normal goat serum and PBS-Triton for 1 hour at room temperature for permeabilization and blocking. The slides were incubated with FITC-conjugated isolectin or with primary antibody against one of following: α-smooth muscle actin (SMA), glial fibrillary acidic protein (GFAP), CD45, transforming growth factor beta (TGF-β1), F4/80, transforming growth factor beta (TGF-β1) (Abcam; ab92486), or activated Caspase-3. […] The intensity of the antibody specific staining was quantified using ImageJ software. […]

The subject of series [8] is floxed stop tdTomato reporter in retina. The series can be described thus: Cre recombinase uptake and gene editing in Ai9 reporter mice (tdTomato). Format: in vivo. The conditions noted are these: 4 micrograms Cre recombinase alone or with 1 microgram Nuc1, intravitreal. The text has this: In these mice, a reporter tdTomato transgene expression cassette is turned on when a foxed stop codon is excised by Cre recombinase. […] The observation that Cre recombinase can enter cells by itself was surprising. However, the above assay is highly sensitive due to the fact that one gene editing event is substantially amplified through the continuous production of protein that accumulates in the cell.

Several values for one entry are separate records, joined by “and”; a condition that tells them apart may be missing. Equal values may be shown once. Entries after “also recorded” stand apart in the source; their conditions may differ. Peptide text beside a SMILES is read from it. * marks the point of attachment. 5FAM = O=C1OC2(c3ccc(O)cc3Oc3cc(O)ccc32)c2ccc(C(=O)*)cc21

`O=C(O)c1ccc2c(c1)C1(OC2=O)c2ccc(O)cc2Oc2cc(O)ccc21` [6-FAM, reference compound]: in the series on retina [1] (1 ug in 1 ul H2O intravitreal, four hours post injection, adult mice), the “localization in retina (fluorescence microscopy of cryosections)” value is recorded as “unable to penetrate retina”.
Consider `CC[C@H](C)[C@H](NC(=O)[C@H](CO)NC(=O)[C@H](C)NC(=O)c1ccc2c(c1)C(=O)OC21c2ccc(O)cc2Oc2cc(O)ccc21)C(=O)N[C@@H](CCCCN)C(=O)N[C@H](C(=O)N[C@@H](C)C(=O)N[C@H](C(=O)N[C@@H](CO)C(=O)N[C@@H](C)C(=O)NCC(=O)NCC(=O)N[C@@H](CC(=O)O)C(=O)N[C@@H](CCCCN)C(=O)N1CCC[C@H]1C(=O)N[C@@H](CCCNC(=N)N)C(=O)N[C@@H](CCCNC(=N)N)C(=O)O)C(C)C)C(C)C` [FAM labeled Nuc1] (5FAM-ASIKVAVSAGGDKPRR-OH), for which the “localization in retina (fluorescence microscopy of cryosections)” value in the series on retina [1] (mouse, in vivo) is “localized to all layers of the retina”.
`C[C@@H]1C[C@H]2[C@@H]3CCC4=CC(=O)C=C[C@]4(C)[C@@]3(F)[C@@H](O)C[C@]2(C)[C@@]1(O)C(=O)CO` [dexamethasone]: in the series with retina [2], the “uptake of fluorescently labeled dexamethasone into the retina” value is given as “taken up into the retina”.

B1: decorin: human recombinant decorin, a small leucine rich proteoglycan (protein, UniProt P07585 31-359, looked up)
Decorin: DEASGIGPEVPDDRDFEPSLGPVCPFRCQCHLRVVQCSDLGLDKVPKDLPPDTTLLDLQNNKITEIKDGDFKNLKNLHALILVNNKISKVSPGAFTPLVKLERLYLSKNQLKELPEKMPKTLQELRAHENEITKVRKVTFNGLNQMIVIELGTNPLKSSGIENGAFQGMKKLSYIRIADTNITSIPQGLPPSLTELHLDGNKISRVDAASLKGLNNLAKLGLSFNSISAVDNGSLANTPHLRELHLDNNKLTRVPGGLAEHKYIQVVYLHNNNISVVGSSDFCPPGHNTKKASYSGVSLFSNPVQYWEIQPSTFRCVYVRSAIQLGNYK
Turning to B1, in series [3] (7 days topical treatment, relative to PBS), the “corneal histology (H+E transverse sections)” value is reported as “increase in thickness of the epithelium; also recorded: vacuolization was apparent”. In addition, the “clinical opacity score (method of Anderson et al.)” value in series [3] (topical once daily for 7 days from 24 hours post alkali burn, PBS scored 4) was determined as 2.8. Also, in series [4] (7 days topical treatment), the “CD45 staining of cornea, images (leukocytes)” value was “reduction in CD45 and F4/80 staining in the anterior region of the stroma”; the “F4/80 staining of cornea, images (macrophages)” value is “reduction in CD45 and F4/80 staining in the anterior region of the stroma”; the “SMA staining of cornea, images (fibrosis)” value is on record as “modest reduction of SMA staining”; the “TGF-β1 expression in cornea (antibody staining)” value is “lower expression of TGF-β1”. In series [4] (7 days topical treatment), the “activated Caspase-3 staining of cornea, images, relative to PBS treated mice” value was “considerable reduction in the staining for activated Caspase-3 in the stroma and endothelium”; the “isolectin (GSL I) staining of cornea, images (neovascularization)” value is “obvious reduction in isolectin staining”; the “reduction in CD45 staining / CD45-positive cells relative to corneas treated with PBS” value is given as 39.6%; the “reduction in F4/80 staining relative to corneas treated with PBS” value was “no significant reduction”. In series [4] (7 days topical treatment), the “reduction in isolectin staining relative to PBS treated corneas (quantification)” value is recorded as “not significantly different to that of PBS treated corneas”. For the same molecule, in series [4] (7 days topical treatment, reference PBS treated (implied)), the “reduction in activated Caspase-3 staining (quantification of fluorescent signal)” value is 51.5%. The “reduction in α-actin (SMA) staining relative to PBS (fibrosis)” value in series [4] (topical 0.5 μg decorin with or without 0.5 μg Nuc1 once a day for seven days, from 24 hours after NaOH) was 33.3% and 33.25%. For the same molecule, in series [5], the “IFN-G expression in corneal lysate relative to PBS treated mice” value was “reduction in expression”, the “IL-1β expression in corneal lysate” value is “increased expression”, the “IL-6 expression in corneal lysate relative to PBS treated mice” value is listed as “reduction in expression” and the “IL-17 expression in corneal lysate relative to PBS treated mice” value is “reduction in expression”. Moreover, the “TNF-α expression in corneal lysate relative to PBS treated mice” value in series [5] is “reduction in expression”. Also, in series [6], the “TUNEL staining of cornea, images (cell death)” value was “considerable reduction in TUNEL staining in the corneal stroma” and the “reduction in TUNEL staining relative to PBS (quantification)” value was found to be 44.8%. Besides, the “GFAP staining of retina (Muller cell activation, gliosis)” value in series [7] is “reduced staining relative to the retinas of mice treated with PBS”.

B2: Cre recombinase: Cre recombinase protein, approximately 38 Kd (protein, UniProt P06956 1-343, looked up)
Recombinase cre: MSNLLTVHQNLPALPVDATSDEVRKNLMDMFRDRQAFSEHTWKMLLSVCRSWAAWCKLNNRKWFPAEPEDVRDYLLYLQARGLAVKTIQQHLGQLNMLHRRSGLPRPSDSNAVSLVMRRIRKENVDAGERAKQALAFERTDFDQVRSLMENSDRCQDIRNLAFLGIAYNTLLRIAEIARIRVKDISRTDGGRMLIHIGRTKTLVSTAGVEKALSLGVTKLVERWISVSGVADDPNNYLFCRVRKNGVAAPSATSQLSTRALEGIFEATHRLIYGAKDDSGQRYLAWSGHSARVGAARDMARAGVSIPEIMQAGGWTNVNIVMNYIRNLDSETGAMVRLLEDGD
As to B2, in series [8], the “tdTomato positive Muller cells” value was “almost no Muller cells expressing tdTomato” and the “tdTomato reporter expression in retina” value is on record as “detectable tdTomato expression”.
